# Results as given in US20260139049A1 (PEDIATRIC IMMUNITY AND HEALTHCARE GUANGZHOU BIOTECHNOLOGY, published 2026).
# Changes are numbered by the printed parent chain.
# T1: human CLDN6 (human, UniProt P56747 1-220)
# T1 construct: whole, on cells; four-transmembrane protein; also called claudin-6; HEK293T-CLDN6
# T1 sequence (looked up): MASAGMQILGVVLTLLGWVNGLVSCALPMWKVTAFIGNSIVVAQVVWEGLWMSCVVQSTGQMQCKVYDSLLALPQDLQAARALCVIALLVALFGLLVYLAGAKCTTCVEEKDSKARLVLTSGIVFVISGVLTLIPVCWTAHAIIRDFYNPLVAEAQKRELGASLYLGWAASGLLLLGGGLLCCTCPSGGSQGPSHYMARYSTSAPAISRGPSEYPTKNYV
# B1: 51C10-M3 (antibody, human IgG1, kappa, V domains shown)
# VH: EVQLQQSGPELVKPGASVKMSCKASGYTFTDYNMHWVKKSHGKSLEWIGYVNPNNGATSYNQKFKGKATLTVNKSSSTAYMELRSLTSEDSAVYNCARWDAYVYYYGLDYWGQGTSVTVSS
# VL: DIQMTQSSSYLSVSLGGRVTITCKASDHINNWLAWYQQKPGNAPRLLISGATSLETGVPSRFSGSGSGKDYTLSITSLQTEDVATYYCQQYWSTPYTFGGGTKLEIKR
# notes: 51C10H4 with G of DG in heavy-chain CDR3 changed to A; also called improved antibody 51C10-M3
# B2: 51C10-M4 (antibody, human IgG1, kappa, V domains shown)
# VH: B1 VH with D100E, A101G
# VL: B1 VL
# notes: 51C10H4 with D of DG in heavy-chain CDR3 changed to E; also called improved antibody 51C10-M4
# B3: PiH1004 (antibody, human IgG1, kappa, V domains shown)
# VH: QVQLVQSGAEVKKPGASVKVSCKASGYTFTDYNMHWVRQAPGQSLEWIGYVNPNNGATSYNQKFKGRATMTVDKSTSTVYMELSSLRSEDTAVYNCARWDGYVYYYGLDYWGQGTLVTVSS
# VL: DIQMTQSPSSLSASVGDRVTITCKASDHINNWLAWYQQKPGKVPKLLISGATSLETGVPSRFSGSGSGTDYTLTISSLQPEDVATYYCQQYWSTPYTFGGGTKLEIKR
# notes: humanized from 51C10H4; IgG1; also called 51-VH4 + VL3
# B4: PiH2006 (antibody, human IgG1, kappa, V domains shown)
# VH: B3 VH with S44R, V51I, S59N, A68V, M70I, K74T, T76A, V79A, L108M
# VL: B3 VL with D17G, V43A, L73F, V83I, S93N
# notes: humanized from 54B5A7; IgG1; also called 54-VH2 + VL4
# B5: PiH1004-M1 (antibody, human IgG1, kappa, V domains shown)
# VH: B3 VH with G56A
# VL: B3 VL
# notes: PiH1004 with G of NG in heavy-chain CDR2 changed to A; also called improved antibody PiH1004-M1
# B6: PiH2007 (antibody, human IgG1, kappa, V domains shown)
# VH: B3 VH with V51I, S59N, M70I, K74T, T76A, V79A, L108M
# VL: B3 VL with D17G, V43A, L73F, V83I, S93N
# notes: humanized from 54B5A7; IgG1; also called 54-VH3 + VL4
# What was measured:
# human CLDN6 [1] = molecular target: T1, human CLDN6; assay: binding to CLDN6-expressing cells; method not given
# human CLDN6 [2] = molecular target: T1, human CLDN6; assay: FACS on PA-1 tumour cells; target on the cells taken as CLDN6
# Description: (§1) 50 μL of an antibody to be tested was added to a 96-well plate, then 1×10⁵ cells were added to each well, and incubation was conducted at 4° C. for 1 h. Cells were washed three times with PBS. […] Finally, cells were washed three times with PBS, and signals were read using FACS. A binding capacity of the antibody to each tumor cell was analyzed based on detection data.
# human CLDN6 [3] = molecular target: T1, human CLDN6; assay: FACS on HepG2 tumour cells, 5 µg/mL; target on the cells taken as CLDN6
# Description: as §1
# human CLDN6 [4] = molecular target: T1, human CLDN6; assay: FACS on HEK293T-CLDN6 cells
# Description: (§2) To detect a binding capacity of a chimeric or humanized antibody to CLDN6, a CLDN6-expressing cell line HEK293T-CLDN6 and a CLDN6-negative control cell line HEK293T were washed three times with PBS. 1×10⁵ test cells and 50 μL of an antibody solution to be tested were added to a 96-well plate, and incubated at 4° C. for 1 h. The cells were then washed three times with PBS. […] Finally, cells were washed three times with PBS, and signals were read using FACS.
# (§3) An EC50 value (a concentration of an antibody that binds to half of binding sites at equilibrium) is calculated through nonlinear regression.
# human CLDN6 [5] = molecular target: T1, human CLDN6; assay: FACS on HepG2 tumour cells; target on the cells taken as CLDN6
# Description: as §1
# human CLDN6 [6] = molecular target: T1, human CLDN6; assay: as above; remark: listed apart in the source
# Description: as §1
# human CLDN6 [7] = molecular target: T1, human CLDN6; assay: FACS on HEK293T-CLDN6 cells; remark: listed apart in the source
# Description: as §2, §3
# human CLDN6 [8] = molecular target: T1, human CLDN6; assay: FACS on PA-1 tumour cells; target on the cells taken as CLDN6; remark: listed apart in the source
# Description: as §1
binder,measurement,setting,value
B1,binding result,human CLDN6 [1],binds
B2,binding result,human CLDN6 [1],binds
B3,EC50,human CLDN6 [2],0.491 µg/mL
same,Geom.Mean,human CLDN6 [3],851
same,EC50,human CLDN6 [4],0.363 µg/mL
same,EC50,human CLDN6 [5],0.843 µg/mL
B4,EC50,human CLDN6 [6],5.84 µg/mL
B5,Geom.Mean,human CLDN6 [3],892
B6,EC50,human CLDN6 [7],0.897 µg/mL
same,EC50,human CLDN6 [8],1.17 µg/mL
